Assay results: PMC12170172, “Initiation of ERAD by the bifunctional complex of Mnl1/Htm1 mannosidase and protein disulfide isomerase” (Nature Structural & Molecular Biology, 2025)

Target: T1, Mnl1–FLAG (S. cerevisiae, UniProt P38888 21-796)
T1 construct: Mnl1 (Htm1), luminal ER mannosidase of S. cerevisiae; MHD amino acids 29–514, loop 515–650, CTD 651–796; called 'Full-length' against Mnl1ΔC; The end of the FLAG tag is stated for the GAL1 plasmid; also called Htm1; FLAG-tagged Mnl1; not shown: FLAG, C-terminal, kept
T1 sequence (looked up): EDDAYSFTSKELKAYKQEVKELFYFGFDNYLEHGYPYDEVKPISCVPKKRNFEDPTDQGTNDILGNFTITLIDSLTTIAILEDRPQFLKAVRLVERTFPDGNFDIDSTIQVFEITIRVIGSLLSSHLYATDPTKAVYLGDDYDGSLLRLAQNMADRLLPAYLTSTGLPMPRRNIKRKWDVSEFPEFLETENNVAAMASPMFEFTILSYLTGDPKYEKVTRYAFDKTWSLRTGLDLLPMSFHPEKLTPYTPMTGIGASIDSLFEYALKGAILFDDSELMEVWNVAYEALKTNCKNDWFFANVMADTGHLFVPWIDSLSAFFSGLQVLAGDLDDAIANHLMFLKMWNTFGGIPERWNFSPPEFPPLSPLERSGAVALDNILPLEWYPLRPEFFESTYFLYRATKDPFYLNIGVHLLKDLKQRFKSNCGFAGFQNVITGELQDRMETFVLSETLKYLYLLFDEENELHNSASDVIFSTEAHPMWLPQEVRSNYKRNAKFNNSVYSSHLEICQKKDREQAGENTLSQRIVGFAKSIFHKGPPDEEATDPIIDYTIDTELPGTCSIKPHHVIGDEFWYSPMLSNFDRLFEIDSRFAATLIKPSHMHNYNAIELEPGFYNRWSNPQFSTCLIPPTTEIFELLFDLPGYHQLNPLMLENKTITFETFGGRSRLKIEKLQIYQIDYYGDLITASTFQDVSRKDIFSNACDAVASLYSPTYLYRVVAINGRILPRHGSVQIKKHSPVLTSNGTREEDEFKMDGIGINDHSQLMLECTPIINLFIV
Assay: cryo-EM structure; Mnl1–FLAG–Pdi1 complex at 1 mg/ml, purified from detergent-treated yeast membranes with anti-FLAG beads and by size-exclusion chromatography as a 1:1 complex; 25 mM HEPES pH 7.4, 150 mM NaCl
Settings: both partners purified

- stoichiometry N: 1
B1: Pdi1 (protein disulfide isomerase) (enzyme, S. cerevisiae, UniProt P17967 29-522, looked up)
chain: PEDSAVVKLATDSFNEYIQSHDLVLAEFFAPWCGHCKNMAPEYVKAAETLVEKNITLAQIDCTENQDLCMEHNIPGFPSLKIFKNSDVNNSIDYEGPRTAEAIVQFMIKQSQPAVAVVADLPAYLANETFVTPVIVQSGKIDADFNATFYSMANKHFNDYDFVSAENADDDFKLSIYLPSAMDEPVVYNGKKADIADADVFEKWLQVEALPYFGEIDGSVFAQYVESGLPLGYLFYNDEEELEEYKPLFTELAKKNRGLMNFVSIDARKFGRHAGNLNMKEQFPLFAIHDMTEDLKYGLPQLSEEAFDELSDKIVLESKAIESLVKDFLKGDASPIVKSQEIFENQDSSVFQLVGKNHDEIVNDPKKDVLVLYYAPWCGHCKRLAPTYQELADTYANATSDVLIAKLDHTENDVRGVVIEGYPTIVLYPGGKKSESVVYQGSRSLDSLFDFIKENGHFDVDGKALYEEAQEKAAEEADADAELADEEDAIHDEL
notes: Pdi1, protein disulfide isomerase of S. cerevisiae, untagged; Trx domains a, b, b′ and a′; amino acids 24–500 could be modelled; source: S. cerevisiae, overexpressed together with Mnl1–FLAG (GAL1 promoter), purified as a complex
